Laboratory results reported in publication PMC3988186.

Legend:
beta-arrestin 1 = beta-arrestin 1 (UniProt P49407); settings: 2'-F pyrimidines (2'F-C, 2'F-U); Kd assay buffer not stated separately; selection buffer F: 20 mM HEPES pH 7.4, 150 mM NaCl, 1 mM CaCl2, 1 mM MgCl2, 0.01% BSA, 37 C
beta-arrestin 2 = beta-arrestin 2 (UniProt P32121); settings: 2'-F pyrimidines (2'F-C, 2'F-U); Kd assay buffer not stated separately; selection buffer F: 20 mM HEPES pH 7.4, 150 mM NaCl, 1 mM CaCl2, 1 mM MgCl2, 0.01% BSA, 37 C
beta-arrestin 2, sequence (P32121 whole entry): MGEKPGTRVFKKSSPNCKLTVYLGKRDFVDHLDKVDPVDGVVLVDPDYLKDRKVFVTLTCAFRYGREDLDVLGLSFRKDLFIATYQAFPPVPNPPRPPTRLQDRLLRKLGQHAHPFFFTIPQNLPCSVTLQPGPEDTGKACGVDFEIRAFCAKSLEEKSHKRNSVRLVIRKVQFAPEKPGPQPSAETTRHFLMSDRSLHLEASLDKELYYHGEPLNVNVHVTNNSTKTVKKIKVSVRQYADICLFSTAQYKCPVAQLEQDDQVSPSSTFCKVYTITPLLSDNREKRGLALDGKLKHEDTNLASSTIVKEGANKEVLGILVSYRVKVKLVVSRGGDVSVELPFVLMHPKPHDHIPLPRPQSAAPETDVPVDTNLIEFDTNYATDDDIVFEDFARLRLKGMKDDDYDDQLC

beta-arrestin 1, sequence (P49407 whole entry): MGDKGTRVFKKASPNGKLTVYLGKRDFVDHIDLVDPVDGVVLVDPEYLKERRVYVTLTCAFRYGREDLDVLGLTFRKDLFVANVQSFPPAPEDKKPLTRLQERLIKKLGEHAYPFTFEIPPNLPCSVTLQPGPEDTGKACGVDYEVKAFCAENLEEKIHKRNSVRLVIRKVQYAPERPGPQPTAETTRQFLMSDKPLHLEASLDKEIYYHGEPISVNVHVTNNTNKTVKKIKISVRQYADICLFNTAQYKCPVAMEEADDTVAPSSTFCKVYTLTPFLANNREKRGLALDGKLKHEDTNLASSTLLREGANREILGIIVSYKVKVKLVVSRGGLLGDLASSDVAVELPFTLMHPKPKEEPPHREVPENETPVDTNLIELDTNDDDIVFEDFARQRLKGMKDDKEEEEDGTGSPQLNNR

| Sequence | Kd (beta-arrestin 1) [nM] | Kd (beta-arrestin 2) [nM] |
| --- | --- | --- |
| GGGAGGACGAUGCGGAUCCUCGUCCCGUCACGGCAGAACCACGUCAGGCCUUCAACAGACGACUCGCUGAGGAUCCGAGA [beta-arr2A3] | 748 | 22 |
| GGGAGGACGAUGCGGAUUCCGUUAAGUAUCGCGUUAAACGCUAUGCGGACGCGUCAGACGACUCGCUGAGGAUCCGAGA [beta-arr2A1] | 966 | 19.8 |
| GGGAGGACGAUGCGGCCAGGUGUAGACAGACGUGAGAGAUUGACCUGGCAGCAGCCAGACGACUCGCUGAGGAUCCGAGA [beta-arr2A2] | 2160 | 4.13 |
